Assay results published in patent US20260167699A1 (Chugai, published 2026).

T1: FcγRIIa(R) (human, UniProt P12318 34-217)
T1 construct: extracellular domain; also called FcγRIIa R type; 2aR
T1 sequence: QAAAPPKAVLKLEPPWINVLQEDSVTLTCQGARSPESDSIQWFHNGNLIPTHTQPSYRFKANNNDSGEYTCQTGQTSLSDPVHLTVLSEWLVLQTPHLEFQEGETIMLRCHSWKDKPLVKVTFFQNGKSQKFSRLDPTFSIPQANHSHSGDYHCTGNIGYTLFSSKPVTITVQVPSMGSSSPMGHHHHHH

T2: FcγRIIa(H) (human, UniProt P12318 34-217)
T2 construct: extracellular domain; also called FcγRIIa H type; 2aH
T2 sequence: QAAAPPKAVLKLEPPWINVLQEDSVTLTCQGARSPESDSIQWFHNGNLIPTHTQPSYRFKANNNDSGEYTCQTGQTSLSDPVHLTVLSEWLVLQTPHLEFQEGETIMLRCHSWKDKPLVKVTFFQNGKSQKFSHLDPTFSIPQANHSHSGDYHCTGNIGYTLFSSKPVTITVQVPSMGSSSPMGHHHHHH

T3: FcγRIIb (human, UniProt P31994 43-217)
T3 construct: extracellular domain; also called 2b
T3 sequence: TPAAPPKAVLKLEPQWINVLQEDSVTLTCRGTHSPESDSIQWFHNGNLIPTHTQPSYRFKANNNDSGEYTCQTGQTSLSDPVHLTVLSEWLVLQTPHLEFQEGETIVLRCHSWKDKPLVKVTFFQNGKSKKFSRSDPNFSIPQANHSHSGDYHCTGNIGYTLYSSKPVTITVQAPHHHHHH


Experiments:
Experiment in all cases: SPR (Biacore), binding relative to GpH7-A5/GpH7-B3/GpL16-k0 x100;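 note: surface plasmon resonance at 25 °C, antibody captured on a sensor chip and soluble FcγR flowed over it in HBS-EP+ running buffer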
[1] = target: T4, FcγRIa (human, UniProt P12314 16-292)
T4 construct: extracellular domain; also called 1a
T4 sequence (P12314 other isoform, or with tags, fused parts or gaps): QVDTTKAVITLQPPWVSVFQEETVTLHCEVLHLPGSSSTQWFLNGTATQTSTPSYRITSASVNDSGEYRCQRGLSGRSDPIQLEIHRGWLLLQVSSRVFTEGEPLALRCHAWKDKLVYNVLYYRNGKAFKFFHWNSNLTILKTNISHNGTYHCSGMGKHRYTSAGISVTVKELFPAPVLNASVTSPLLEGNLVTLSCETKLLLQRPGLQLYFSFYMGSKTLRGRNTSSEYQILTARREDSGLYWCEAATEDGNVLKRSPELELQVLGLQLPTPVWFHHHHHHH
Experimental: (§1) The antibody of interest was analyzed for its interaction with FcγR using a BiaCore™ T100, BiaCore™ A100, or BiaCore™ 4000 surface plasmon resonance system (GE Healthcare Japan Corp.). The running buffer used was HBS-EP+ (GE Healthcare Japan Corp.). The assay temperature was set to 25° C. The sensor chips used were: a chip prepared by immobilizing antigenic peptides onto Series S Sensor Chip CM5 (GE Healthcare Japan Corp.) by the amine coupling method; a chip prepared by immobilizing antigenic peptides biotinylated in advance onto Series S Sensor Chip SA (certified) (GE Healthcare Japan Corp.) through their interaction; a chip prepared by immobilizing protein L (ACTIGEN, BioVision, Inc.) onto Series S Sensor Chip CM5 (GE Healthcare Japan Corp.); and a chip prepared by immobilizing protein A/G (Thermo Fisher Scientific K.K.) onto Series S Sensor Chip CM5 (GE Healthcare Japan Corp.). The antibody of interest was captured onto any of these chips and allowed to interact with FcγR diluted with a running buffer. The antibody captured on the chip was washed off through the reaction of 10 mM glycine-HCl (pH 1.5) to regenerate the chip, which was repetitively used.

[2] = target: T1, FcγRIIa(R)
Experimental: as §1

[3] = target: T2, FcγRIIa(H)
Experimental: as §1

[4] = target: T3, FcγRIIb
Experimental: as §1

| Binder | He/Con 1a [1] | He/Con 2aR [2] | He/Con 2aH [3] | He/Con 2b [4] |
| --- | --- | --- | --- | --- |
| GpH7-A5/GpH7-B3 variant L234_16H/GpL16-k0 (antibody, human IgG1, kappa, heterodimerized IgG1, one H chain mutated; also called He Ab) heavy 1: not shown heavy 2: not shown light: DIVMTQSPLSLPVTPGEPASISCQASESLVHSNRNTYLHWYLQKPGQSPQLLIYKVSNRFSGVPDRFSGSGSGTDFTLKISRVEAEDVGVYYCSQNTHVPPTFGQGTKVEIERTVAAPSVFIFPPSDEQLKSGTASVVCLLNNFYPREAKVQWKVDNALQSGNSQESVTEQDSKDSTYSLSSTLTLSKADYEKHKVYACEVTHQGLSSPVTKSFNRGEC | 97% | 83.5% | 97.1% | 67.8% |
| GpH7-A5/GpH7-B3 variant L235_06M/GpL16-k0 (antibody, human IgG1, kappa, heterodimerized IgG1, one H chain mutated; also called He Ab) heavy 1: not shown heavy 2: not shown light: DIVMTQSPLSLPVTPGEPASISCQASESLVHSNRNTYLHWYLQKPGQSPQLLIYKVSNRFSGVPDRFSGSGSGTDFTLKISRVEAEDVGVYYCSQNTHVPPTFGQGTKVEIERTVAAPSVFIFPPSDEQLKSGTASVVCLLNNFYPREAKVQWKVDNALQSGNSQESVTEQDSKDSTYSLSSTLTLSKADYEKHKVYACEVTHQGLSSPVTKSFNRGEC | 101% | 106% | 96.3% | 92.4% |
| GpH7-A5/GpH7-B3 variant L234_18N/GpL16-k0 (antibody, human IgG1, kappa, heterodimerized IgG1, one H chain mutated; also called He Ab) heavy 1: not shown heavy 2: not shown light: DIVMTQSPLSLPVTPGEPASISCQASESLVHSNRNTYLHWYLQKPGQSPQLLIYKVSNRFSGVPDRFSGSGSGTDFTLKISRVEAEDVGVYYCSQNTHVPPTFGQGTKVEIERTVAAPSVFIFPPSDEQLKSGTASVVCLLNNFYPREAKVQWKVDNALQSGNSQESVTEQDSKDSTYSLSSTLTLSKADYEKHKVYACEVTHQGLSSPVTKSFNRGEC | 97.3% | 98% | 100% | 92% |
| GpH7-A5/GpH7-B3 variant L235_07I/GpL16-k0 (antibody, human IgG1, kappa, heterodimerized IgG1, one H chain mutated; also called He Ab) heavy 1: not shown heavy 2: not shown light: DIVMTQSPLSLPVTPGEPASISCQASESLVHSNRNTYLHWYLQKPGQSPQLLIYKVSNRFSGVPDRFSGSGSGTDFTLKISRVEAEDVGVYYCSQNTHVPPTFGQGTKVEIERTVAAPSVFIFPPSDEQLKSGTASVVCLLNNFYPREAKVQWKVDNALQSGNSQESVTEQDSKDSTYSLSSTLTLSKADYEKHKVYACEVTHQGLSSPVTKSFNRGEC | 103% | 102% | 99.5% | 100% |
| GpH7-A5/GpH7-B3 variant L234_20W/GpL16-k0 (antibody, human IgG1, kappa, heterodimerized IgG1, one H chain mutated; also called He Ab) heavy 1: not shown heavy 2: not shown light: DIVMTQSPLSLPVTPGEPASISCQASESLVHSNRNTYLHWYLQKPGQSPQLLIYKVSNRFSGVPDRFSGSGSGTDFTLKISRVEAEDVGVYYCSQNTHVPPTFGQGTKVEIERTVAAPSVFIFPPSDEQLKSGTASVVCLLNNFYPREAKVQWKVDNALQSGNSQESVTEQDSKDSTYSLSSTLTLSKADYEKHKVYACEVTHQGLSSPVTKSFNRGEC | 102% | 125% | 126% | 131% |
| GpH7-A5/GpH7-B3 variant L235_03V/GpL16-k0 (antibody, human IgG1, kappa, heterodimerized IgG1, one H chain mutated; also called He Ab) heavy 1: not shown heavy 2: not shown light: DIVMTQSPLSLPVTPGEPASISCQASESLVHSNRNTYLHWYLQKPGQSPQLLIYKVSNRFSGVPDRFSGSGSGTDFTLKISRVEAEDVGVYYCSQNTHVPPTFGQGTKVEIERTVAAPSVFIFPPSDEQLKSGTASVVCLLNNFYPREAKVQWKVDNALQSGNSQESVTEQDSKDSTYSLSSTLTLSKADYEKHKVYACEVTHQGLSSPVTKSFNRGEC | 97.8% | 83.4% | 94.9% | 75.8% |
| GpH7-A5/GpH7-B3 variant L235_02A/GpL16-k0 (antibody, human IgG1, kappa, heterodimerized IgG1, one H chain mutated; also called He Ab) heavy 1: not shown heavy 2: not shown light: DIVMTQSPLSLPVTPGEPASISCQASESLVHSNRNTYLHWYLQKPGQSPQLLIYKVSNRFSGVPDRFSGSGSGTDFTLKISRVEAEDVGVYYCSQNTHVPPTFGQGTKVEIERTVAAPSVFIFPPSDEQLKSGTASVVCLLNNFYPREAKVQWKVDNALQSGNSQESVTEQDSKDSTYSLSSTLTLSKADYEKHKVYACEVTHQGLSSPVTKSFNRGEC | 95.2% | 86.6% | 77.6% | 72% |
| GpH7-A5/GpH7-B3 variant L234_19Q/GpL16-k0 (antibody, human IgG1, kappa, heterodimerized IgG1, one H chain mutated; also called He Ab) heavy 1: not shown heavy 2: not shown light: DIVMTQSPLSLPVTPGEPASISCQASESLVHSNRNTYLHWYLQKPGQSPQLLIYKVSNRFSGVPDRFSGSGSGTDFTLKISRVEAEDVGVYYCSQNTHVPPTFGQGTKVEIERTVAAPSVFIFPPSDEQLKSGTASVVCLLNNFYPREAKVQWKVDNALQSGNSQESVTEQDSKDSTYSLSSTLTLSKADYEKHKVYACEVTHQGLSSPVTKSFNRGEC | 98.8% | 87.2% | 88.1% | 68.9% |
| GpH7-A5/GpH7-B3 variant L235_04F/GpL16-k0 (antibody, human IgG1, kappa, heterodimerized IgG1, one H chain mutated; also called He Ab) heavy 1: not shown heavy 2: not shown light: DIVMTQSPLSLPVTPGEPASISCQASESLVHSNRNTYLHWYLQKPGQSPQLLIYKVSNRFSGVPDRFSGSGSGTDFTLKISRVEAEDVGVYYCSQNTHVPPTFGQGTKVEIERTVAAPSVFIFPPSDEQLKSGTASVVCLLNNFYPREAKVQWKVDNALQSGNSQESVTEQDSKDSTYSLSSTLTLSKADYEKHKVYACEVTHQGLSSPVTKSFNRGEC | 100% | 132% | 123% | 135% |
| GpH7-A5/GpH7-B3 variant L235_05P/GpL16-k0 (antibody, human IgG1, kappa, heterodimerized IgG1, one H chain mutated; also called He Ab) heavy 1: not shown heavy 2: not shown light: DIVMTQSPLSLPVTPGEPASISCQASESLVHSNRNTYLHWYLQKPGQSPQLLIYKVSNRFSGVPDRFSGSGSGTDFTLKISRVEAEDVGVYYCSQNTHVPPTFGQGTKVEIERTVAAPSVFIFPPSDEQLKSGTASVVCLLNNFYPREAKVQWKVDNALQSGNSQESVTEQDSKDSTYSLSSTLTLSKADYEKHKVYACEVTHQGLSSPVTKSFNRGEC | 97.8% | 74.6% | 64.2% | 62.4% |

Results, then the binder that gave them:

| He/Con 1a [1] | He/Con 2aR [2] | He/Con 2aH [3] | He/Con 2b [4] | Binder |
| --- | --- | --- | --- | --- |
| 96.9% | 98.7% | 80% | 90.8% | GpH7-A5/GpH7-B3 variant L235_10E/GpL16-k0 (antibody, human IgG1, kappa, heterodimerized IgG1, one H chain mutated; also called He Ab) heavy 1: not shown heavy 2: not shown light: DIVMTQSPLSLPVTPGEPASISCQASESLVHSNRNTYLHWYLQKPGQSPQLLIYKVSNRFSGVPDRFSGSGSGTDFTLKISRVEAEDVGVYYCSQNTHVPPTFGQGTKVEIERTVAAPSVFIFPPSDEQLKSGTASVVCLLNNFYPREAKVQWKVDNALQSGNSQESVTEQDSKDSTYSLSSTLTLSKADYEKHKVYACEVTHQGLSSPVTKSFNRGEC |
| 91.6% | 70.6% | 79.5% | 53.4% | GpH7-A5/GpH7-B3 variant L235_14T/GpL16-k0 (antibody, human IgG1, kappa, heterodimerized IgG1, one H chain mutated; also called He Ab) heavy 1: not shown heavy 2: not shown light: DIVMTQSPLSLPVTPGEPASISCQASESLVHSNRNTYLHWYLQKPGQSPQLLIYKVSNRFSGVPDRFSGSGSGTDFTLKISRVEAEDVGVYYCSQNTHVPPTFGQGTKVEIERTVAAPSVFIFPPSDEQLKSGTASVVCLLNNFYPREAKVQWKVDNALQSGNSQESVTEQDSKDSTYSLSSTLTLSKADYEKHKVYACEVTHQGLSSPVTKSFNRGEC |
| 93.5% | 75.9% | 73.5% | 55% | GpH7-A5/GpH7-B3 variant L235_13S/GpL16-k0 (antibody, human IgG1, kappa, heterodimerized IgG1, one H chain mutated; also called He Ab) heavy 1: not shown heavy 2: not shown light: DIVMTQSPLSLPVTPGEPASISCQASESLVHSNRNTYLHWYLQKPGQSPQLLIYKVSNRFSGVPDRFSGSGSGTDFTLKISRVEAEDVGVYYCSQNTHVPPTFGQGTKVEIERTVAAPSVFIFPPSDEQLKSGTASVVCLLNNFYPREAKVQWKVDNALQSGNSQESVTEQDSKDSTYSLSSTLTLSKADYEKHKVYACEVTHQGLSSPVTKSFNRGEC |
| 100% | 150% | 135% | 170% | GpH7-A5/GpH7-B3 variant L235_15Y/GpL16-k0 (antibody, human IgG1, kappa, heterodimerized IgG1, one H chain mutated; also called He Ab) heavy 1: not shown heavy 2: not shown light: DIVMTQSPLSLPVTPGEPASISCQASESLVHSNRNTYLHWYLQKPGQSPQLLIYKVSNRFSGVPDRFSGSGSGTDFTLKISRVEAEDVGVYYCSQNTHVPPTFGQGTKVEIERTVAAPSVFIFPPSDEQLKSGTASVVCLLNNFYPREAKVQWKVDNALQSGNSQESVTEQDSKDSTYSLSSTLTLSKADYEKHKVYACEVTHQGLSSPVTKSFNRGEC |
| 87.6% | 117% | 84.3% | 121% | GpH7-A5/GpH7-B3 variant L235_09D/GpL16-k0 (antibody, human IgG1, kappa, heterodimerized IgG1, one H chain mutated; also called He Ab) heavy 1: not shown heavy 2: not shown light: DIVMTQSPLSLPVTPGEPASISCQASESLVHSNRNTYLHWYLQKPGQSPQLLIYKVSNRFSGVPDRFSGSGSGTDFTLKISRVEAEDVGVYYCSQNTHVPPTFGQGTKVEIERTVAAPSVFIFPPSDEQLKSGTASVVCLLNNFYPREAKVQWKVDNALQSGNSQESVTEQDSKDSTYSLSSTLTLSKADYEKHKVYACEVTHQGLSSPVTKSFNRGEC |
